Laboratory results as given in US20170114420.

Assays:
Assay in all cases: ELONA
[1] = tested on: Norovirus GII.4 (Houston) VLP, capsid protein VP1 (Norovirus GII.4 Houston); settings: 1 uM aptamer, RT
[2] = tested on: Norovirus GI.6 VLP, capsid protein VP1 (Norovirus GI.6); settings: 1 uM aptamer, RT
[3] = tested on: Norovirus GI.8 VLP, capsid protein VP1 (Norovirus GI.8); settings: 1 uM aptamer, RT
[4] = tested on: Norovirus GII.4 (Sydney) VLP, heat-denatured (80 C, 5 min) (Norovirus GII.4 Sydney); settings: VLP denatured 80 C 5 min
[5] = tested on: Norovirus GI.7 VLP, capsid protein VP1 (Norovirus GI.7); settings: 1 uM aptamer, RT
[6] = tested on: Norovirus GII.3 VLP, capsid protein VP1 (Norovirus GII.3); settings: 1 uM aptamer, RT
[7] = tested on: Norovirus GII.1 VLP, capsid protein VP1 (Norovirus GII.1); settings: 1 uM aptamer, RT
[8] = tested on: Norovirus GII.4 (Grimsby) VLP, capsid protein VP1 (Norovirus GII.4 Grimsby); settings: 1 uM aptamer, RT
[9] = tested on: Norovirus GII.12 VLP, capsid protein VP1 (Norovirus GII.12); settings: 1 uM aptamer, RT
[10] = tested on: Norovirus GII.7 VLP, capsid protein VP1 (Norovirus GII.7); settings: 1 uM aptamer, RT
[11] = tested on: Norovirus GII.17 VLP, capsid protein VP1 (Norovirus GII.17); settings: 1 uM aptamer, RT
[12] = tested on: Norovirus GI.4 VLP, capsid protein VP1 (Norovirus GI.4); settings: 1 uM aptamer, RT
[13] = tested on: Norovirus GII.6 VLP, capsid protein VP1 (Norovirus GII.6); settings: 1 uM aptamer, RT

Work on “AGTATACGTATTACCTGCAGCTGGGAAGAGGTCCGGTAAATGCAGGGTCAGCCCGGAGAGCGATATCTCGGAGATCTTGC [M6-2]” yielded a binding signal (VLP/no VLP ratio) [1] of 13, a binding signal (VLP/no VLP ratio) [2] of 2.75 and a binding signal (VLP/no VLP ratio) [3] of 4.55. It also gave a binding signal (% of untreated VLP signal) [4] of 1.98, a binding signal (VLP/no VLP ratio) [5] of 7.56 and a binding signal (VLP/no VLP ratio) [6] of 3.16. The binding signal (VLP/no VLP ratio) [7] was 4.52, the binding signal (VLP/no VLP ratio) [8] was 11.5 and the binding signal (VLP/no VLP ratio) [9] was 5.55. The binding signal (VLP/no VLP ratio) [10] was 8.02, the binding signal (VLP/no VLP ratio) [11] was 5.24 and the binding signal (VLP/no VLP ratio) [12] was 3.36. It also gave a binding signal (VLP/no VLP ratio) [13] of 4.4.
“AGTATACGTATTACCTGCAGCTGACCGAGTGTCTGGTCATTTTCGATGTCTGTTGTTAGGCCGATATCTCGGAGATCTTGC [SMV-26]” gave a binding signal [1] of 2.8 T/N ratio, a binding signal [2] of 1.5 T/N ratio and a binding signal [3] of 1.2 T/N ratio. The binding signal [5] was 1.8 T/N ratio, the binding signal [6] was 2.4 T/N ratio and the binding signal [7] was 2.1 T/N ratio. The binding signal [8] was 3.2 T/N ratio, the binding signal [9] was 2.4 T/N ratio and the binding signal [10] was 2.8 T/N ratio. The binding signal [11] was 1.3 T/N ratio, the binding signal [12] was 1.1 T/N ratio and the binding signal [13] was 2.8 T/N ratio.
“AGTATACGTATTACCTGCAGCTGTTTATGGGGATAAACGTATCTAATTCGTGTACTAATCACGATATCTCGGAGATCTTGC [M1]” gave a binding signal (VLP/no VLP ratio) [1] of 10.4, a binding signal (VLP/no VLP ratio) [2] of 1.98 and a binding signal (VLP/no VLP ratio) [3] of 2.61. The binding signal (VLP/no VLP ratio) [5] was 7.32, the binding signal (VLP/no VLP ratio) [6] was 2.94 and the binding signal (VLP/no VLP ratio) [7] was 3.59. For the same sequence, the binding signal (VLP/no VLP ratio) [8] was 7.59, the binding signal (VLP/no VLP ratio) [9] was 4.47 and the binding signal (VLP/no VLP ratio) [10] was 7.47. The binding signal (VLP/no VLP ratio) [11] was 3.94, the binding signal (VLP/no VLP ratio) [12] was 3.17 and the binding signal (VLP/no VLP ratio) [13] was 2.38.
“AGTATACGTATTACCTGCAGCCACCAGTGTGTTGAGGTTTGAGCACACTGATAGAGTGTCACGATATCTCGGAGATCTTGC [SMV-19]” showed a binding signal [1] of 12.5 T/N ratio, a binding signal [2] of 3.7 T/N ratio and a binding signal [3] of 1.7 T/N ratio. For the same sequence, the binding signal [5] was 10.3 T/N ratio, the binding signal [6] was 1.7 T/N ratio and the binding signal [7] was 7.1 T/N ratio. It also gave a binding signal [8] of 9.6 T/N ratio, a binding signal [9] of 1.5 T/N ratio and a binding signal [10] of 4 T/N ratio. It also gave a binding signal [11] of 3 T/N ratio, a binding signal [12] of 1.7 T/N ratio and a binding signal [13] of 1.8 T/N ratio.
“AGTATACGTATTACCTGCAGCCATCTGTGTGAAGACTATATGGCGCTCACATATTTCTTTCCGATATCTCGGAGATCTTGC [SMV-25]” showed a binding signal [1] of 11 T/N ratio, a binding signal [2] of 2.4 T/N ratio and a binding signal [3] of 6.2 T/N ratio. For the same sequence, the binding signal [5] was 3.5 T/N ratio, the binding signal [6] was 5.4 T/N ratio and the binding signal [7] was 9.4 T/N ratio. It also gave a binding signal [8] of 10.4 T/N ratio, a binding signal [9] of 1.9 T/N ratio and a binding signal [10] of 9.1 T/N ratio. The binding signal [11] was 2 T/N ratio, the binding signal [12] was 5.6 T/N ratio and the binding signal [13] was 7.3 T/N ratio.
Sequence “AGTATACGTATTACCTGCAGCCCATGTTTTGTAGGTGTAATAGGTCATGTTAGGGTTTCTGCGATATCTCGGAGATCTTGC [SMV-21]” has a binding signal [1] of 11.3 T/N ratio, a binding signal [2] of 3.8 T/N ratio and a binding signal [3] of 4.6 T/N ratio. It also gave a binding signal [5] of 8.1 T/N ratio, a binding signal [6] of 11.8 T/N ratio and a binding signal [7] of 8.6 T/N ratio. For the same sequence, the binding signal [8] was 6.4 T/N ratio, the binding signal [9] was 6.6 T/N ratio and the binding signal [10] was 13.5 T/N ratio. It also gave a binding signal [11] of 12.2 T/N ratio, a binding signal [12] of 4.3 T/N ratio and a binding signal [13] of 3 T/N ratio.
